Test [1] deals with T1, stabilized pre-fusion RSV F glycoprotein (DS-Cav1) (Human respiratory syncytial virus A, …, stabilised). As to the kind of experiment: cell-based or functional assay.
Test [2] deals with T1, stabilized pre-fusion RSV F …. As to the kind of experiment: SPR; Biacore T200; D25 antibody on Protein A chip captures 50 RU DS-Cav1; RB1 Fab flowed in two-fold dilutions 0.31-20 nM, 50 ul/min; 1:1 Langmuir fit. The following applies: both partners purified. (SPR reads the build-up and loss of mass on a sensor chip optically.)
The target in test [3] is T2, post-fusion RSV F glycoprotein (F∆FP) (Human respiratory syncytial virus A, …, stabilised).
T2 construct: RSV fusion (F) glycoprotein, soluble post-fusion form F∆FP; post-fusion F structure PDB 3RRR; also called post-fusion F protein; RSV F post-Fusion; source: Expi293F, transfected, purified from culture supernatant (Ni-Sepharose, Strep-Tactin, thrombin digestion, Superdex 200)
As to the kind of experiment: SPR; Biacore T200; Synagis antibody on Protein A chip captures 50 RU post-fusion F; RB1 Fab flowed in two-fold dilutions 200-3.12 nM, 40 s dissociation; 1:1 Langmuir fit. The following applies: both partners purified.

In general, Kd refers to the concentration at which binding is half-saturated. A high value points to a looser complex. Usually koff stands for a measure of how fast the partners let go of each other. Read a low koff as slow dissociation. The term kon denotes the second-order rate constant of association. Higher therefore signals fast association.

B1: RB1, fully human IgG1 monoclonal antibody (antibody, V domains shown)
VH: EVQLVESGGGLVRPGRSLRLSCTVSGFSFDDSAMSWVRQAPGKGLEWISFIKSKTYGGTKEYAASVKGRFTISRDDSKNIAYLQMNSLKTEDTAVYYCTRGAPYGGNSDYYYGLDVWGQGTTVTVSS
VL: DIQMTQSPSSLSASVGDRVTITCRTSQDVRGALAWYQQKPGKAPKLLIFDASSLETGVPSRFSGSGSGTVFTLTISSLQPEDFAAYYCQQFLDFPFTFGQGTRLEIK
Consider B1, for which, in test [1], the “microneutralization of RSV A (Long) on HEp-2 cells, IC50 (F on the virus, strain Long)” value was 2.9 ng/mL and the “microneutralization of RSV B (Washington) on HEp-2 cells, IC50 (F on the virus, subtype B strain)” value is 1.7 ng/mL.

B2: RB1 fragment antigen-binding (Fab) (Fab, V domains shown)
VH: B1 VH
VL: B1 VL
notes: Fab heavy chain of RB1 (VH as the heavy chain of m1, plus CH1 of human IgG1 up to the cleavage site); light chain of RB1, as the light chain of m1; The preparation of the Fab is told for the crystallisation; also called RB1 Fab; monovalent RB1 Fab; source: RB1 mAb (CHO-3E7, Protein A purified) cleaved into monovalent Fab with the Fab Preparation Kit (Pierce)
Regarding B2, in test [2], the Kd is 0.022 nM, the koff is 0.000164 s⁻¹ and the kon turned out to be 7.35e+06 M⁻¹ s⁻¹. In test [3], this molecule came in with a Kd of 135 nM, a koff of 0.15 s⁻¹ and a kon of 1.12e+06 M⁻¹ s⁻¹.

The record behind these values is paper PMC6742648, “A potent broadly neutralizing human RSV antibody targets conserved site IV of the fusion glycoprotein” (Nature Communications, 2019).
